Assay results reported in patent publication US20110300138A1 (published 2011).

Experiments:
Test in all cases: cell-based or functional assay
[1] = molecular target: TSHR with Asp203 mutated to Ala expressed in CHO cells (human) (UniProt P16473)
[2] = molecular target: TSHR with Arg80 mutated to Ala expressed in CHO cells (human) (UniProt P16473)
[3] = molecular target: TSHR with Asp276 mutated to Ala, expressed in CHO cells (human) (UniProt P16473)
[4] = molecular target: TSHR with Tyr185 mutated to Ala (human) (UniProt P16473)
[5] = molecular target: wild type human TSHR (full length) expressed in CHO cells (human) (UniProt P16473)
[6] = molecular target: TSHR with Asp43 mutated to Ala, expressed in CHO cells (human) (UniProt P16473)
[7] = molecular target: TSHR with Gln235 mutated to Ala expressed in CHO cells (human) (UniProt P16473)

- Cyclic AMP produced (pmol/mL), 0.01 ng/mL TSH [1]: 5.3 pmol/mL
- Cyclic AMP produced (pmol/mL), 0.03 ng/mL TSH [1]: 7.13 pmol/mL
- Cyclic AMP produced (pmol/mL), 0.1 ng/mL TSH [1]: 13 pmol/mL
- Cyclic AMP produced (pmol/mL), 0.3 ng/mL TSH [1]: 33.8 pmol/mL
- Cyclic AMP produced (pmol/mL), 1 ng/mL TSH [1]: 58.6 pmol/mL
- Cyclic AMP produced (pmol/mL), 3 ng/mL TSH [1]: 69.3 pmol/mL
- Mutated/Wild type (%) of cyclic AMP produced, 0.01 ng/mL TSH [1]: 231%
- Mutated/Wild type (%) of cyclic AMP produced, 0.03 ng/mL TSH [1]: 200%
- Mutated/Wild type (%) of cyclic AMP produced, 0.1 ng/mL TSH [1]: 154%
- Mutated/Wild type (%) of cyclic AMP produced, 0.3 ng/mL TSH [1]: 128%
- Mutated/Wild type (%) of cyclic AMP produced, 1 ng/mL TSH [1]: 89%
- Mutated/Wild type (%) of cyclic AMP produced, 3 ng/mL TSH [1]: 90%
- % inhibition of TSH stimulation; TSH (2) [2]: 16%
- Cyclic AMP produced; TSH 3 ng/mL [2]: 105 pmol/mL
- Cyclic AMP produced; TSH (2) [2]: 88.2 pmol/mL
- Mutated/wild type (%) of cyclic AMP produced; TSH 3 ng/mL [2]: 124%
- Mutated/wild type (%) of cyclic AMP produced; TSH (2) [2]: 94%
- Cyclic AMP produced (pmol/mL), TSH 0.01 ng/mL [3]: 14.3 pmol/mL
- Cyclic AMP produced (pmol/mL), TSH 0.03 ng/mL [3]: 17.6 pmol/mL
- Cyclic AMP produced (pmol/mL), TSH 0.1 ng/mL [3]: 21.7 pmol/mL
- Cyclic AMP produced (pmol/mL), TSH 0.3 ng/mL [3]: 45.6 pmol/mL
- Cyclic AMP produced (pmol/mL), TSH 1 ng/mL [3]: 68.3 pmol/mL
- Cyclic AMP produced (pmol/mL), TSH 3 ng/mL [3]: 76 pmol/mL
- Experiment 1; % inhibition of TSH stimulation; TSH (2) 3 ng/mL, run at the end of assay [3]: 6%
- Experiment 1; Mutated/wild type (%) of cyclic AMP produced; TSH 3 ng/mL [3]: 91%
- Experiment 1; Mutated/wild type (%) of cyclic AMP produced; TSH (2) 3 ng/mL, run at the end of assay [3]: 90%
- Experiment 1; cyclic AMP produced; TSH 3 ng/mL [3]: 71.2 pmol/mL
- Experiment 1; cyclic AMP produced; TSH (2) 3 ng/mL, run at the end of assay [3]: 67 pmol/mL
- Experiment 2; % inhibition of TSH stimulation; TSH (2) 3 ng/mL, run at the end of assay [3]: 18%
- Experiment 2; Mutated/wild type (%) of cyclic AMP produced; TSH 3 ng/mL [3]: 78%
- Experiment 2; Mutated/wild type (%) of cyclic AMP produced; TSH (2) 3 ng/mL, run at the end of assay [3]: 66%
- Experiment 2; cyclic AMP produced; TSH 3 ng/mL [3]: 74.8 pmol/mL
- Experiment 2; cyclic AMP produced; TSH (2) 3 ng/mL, run at the end of assay [3]: 61.2 pmol/mL
- Mutated/Wild type (%), TSH 0.01 ng/mL [3]: 583%
- Mutated/Wild type (%), TSH 0.03 ng/mL [3]: 369%
- Mutated/Wild type (%), TSH 0.1 ng/mL [3]: 134%
- Mutated/Wild type (%), TSH 0.3 ng/mL [3]: 103%
- Mutated/Wild type (%), TSH 1 ng/mL [3]: 88%
- Mutated/Wild type (%), TSH 3 ng/mL [3]: 80%
- % inhibition of TSH stimulation, TSH (2) run at the end of assay, mutated TSHR [4]: 22%
- Cyclic AMP produced (pmol/mL), TSH 3 ng/mL, mutated TSHR [4]: 52.5 pmol/mL
- Cyclic AMP produced (pmol/mL), TSH (2) 3 ng/mL run at the end of assay, mutated TSHR [4]: 41 pmol/mL
- Mutated/wild type (%) of cyclic AMP produced; TSH 3 ng/mL [4]: 52%
- Mutated/wild type (%) of cyclic AMP produced; TSH (2) 3 ng/mL, run at the end of assay [4]: 31.2%
- % inhibition of TSH stimulation, TSH (2) run at the end of assay, wild type TSHR [5]: 2%
- Cyclic AMP produced (pmol/mL), TSH 0.01 ng/mL, wild type TSHR [5]: 2.03 pmol/mL
- Cyclic AMP produced (pmol/mL), TSH 0.03 ng/mL, wild type TSHR [5]: 3.65 pmol/mL
- Cyclic AMP produced (pmol/mL), TSH 0.1 ng/mL, wild type TSHR [5]: 9.65 pmol/mL
- Cyclic AMP produced (pmol/mL), TSH 0.3 ng/mL, wild type TSHR [5]: 31.4 pmol/mL
- Cyclic AMP produced (pmol/mL), TSH 1 ng/mL, wild type TSHR [5]: 61 pmol/mL
- Cyclic AMP produced (pmol/mL), TSH 3 ng/mL alone, wild type TSHR [5]: 93.9 pmol/mL
- Cyclic AMP produced (pmol/mL), TSH 3 ng/mL, wild type TSHR [5]: 82.6 pmol/mL
- Cyclic AMP produced (pmol/mL), TSH (2) 3 ng/mL run at the end of assay, wild type TSHR [5]: 92.2 pmol/mL
- Cyclic AMP produced, TSH 0.01 ng/mL [5]: 4 pmol/mL
- Cyclic AMP produced, TSH 0.01 ng/mL, Experiment 1 [5]: 1.09 pmol/mL
- Cyclic AMP produced, TSH 0.01 ng/mL, Experiment 2 [5]: 1.93 pmol/mL
- Cyclic AMP produced, TSH 0.03 ng/mL [5]: 6.66 pmol/mL
- Cyclic AMP produced, TSH 0.03 ng/mL, Experiment 1 [5]: 2.31 pmol/mL
- Cyclic AMP produced, TSH 0.03 ng/mL, Experiment 2 [5]: 2.75 pmol/mL
- Cyclic AMP produced, TSH 0.1 ng/mL [5]: 19.7 pmol/mL
- Cyclic AMP produced, TSH 0.1 ng/mL, Experiment 1 [5]: 6.54 pmol/mL
- Cyclic AMP produced, TSH 0.1 ng/mL, Experiment 2 [5]: 7.25 pmol/mL
- Cyclic AMP produced, TSH 0.3 ng/mL [5]: 45 pmol/mL
- Cyclic AMP produced, TSH 0.3 ng/mL, Experiment 1 [5]: 26.5 pmol/mL
- Cyclic AMP produced, TSH 0.3 ng/mL, Experiment 2 [5]: 25.3 pmol/mL
- Cyclic AMP produced, TSH 1 ng/mL [5]: 75.7 pmol/mL
- Cyclic AMP produced, TSH 1 ng/mL, Experiment 1 [5]: 67.7 pmol/mL
- Cyclic AMP produced, TSH 1 ng/mL, Experiment 2 [5]: 51 pmol/mL
- Cyclic AMP produced, TSH 3 ng/mL, Experiment 1 (mean of duplicate) [5]: 83.5 pmol/mL
- Cyclic AMP produced; TSH 3 ng/mL [5]: 87.2 pmol/mL
- Cyclic AMP produced; TSH 3 ng/mL; Experiment 2 [5]: 69.7 pmol/mL
- % inhibition of TSH stimulation, TSH (2) run at the end of assay, mutated TSHR [6]: 0%
- Cyclic AMP produced (pmol/mL), TSH (2) 3 ng/mL run at the end of assay, mutated TSHR [6]: 60.3 pmol/mL
- Mutated/Wild type (%) of cyclic AMP produced, TSH 0.01 ng/mL [6]: 100%
- Mutated/Wild type (%) of cyclic AMP produced, TSH 0.03 ng/mL [6]: 113%
- Mutated/Wild type (%) of cyclic AMP produced, TSH 0.1 ng/mL [6]: 119%
- Mutated/Wild type (%) of cyclic AMP produced, TSH 0.3 ng/mL [6]: 86%
- Mutated/Wild type (%) of cyclic AMP produced, TSH 1 ng/mL [6]: 86%
- Mutated/wild type (%) of cyclic AMP produced; TSH 3 ng/mL [6]: 88%
- Mutated/wild type (%), TSH (2) 3 ng/mL run at the end of assay [6]: 65%
- Cyclic AMP produced, TSH 0.01 ng/mL, Experiment 1 [7]: 1.75 pmol/mL
- Cyclic AMP produced, TSH 0.01 ng/mL, Experiment 2 [7]: 3.42 pmol/mL
Substance: TSH (ligand)
